# T1: NLRC3 FL recombinant (human, UniProt Q7RTR2 1-1065)
# T1 sequence: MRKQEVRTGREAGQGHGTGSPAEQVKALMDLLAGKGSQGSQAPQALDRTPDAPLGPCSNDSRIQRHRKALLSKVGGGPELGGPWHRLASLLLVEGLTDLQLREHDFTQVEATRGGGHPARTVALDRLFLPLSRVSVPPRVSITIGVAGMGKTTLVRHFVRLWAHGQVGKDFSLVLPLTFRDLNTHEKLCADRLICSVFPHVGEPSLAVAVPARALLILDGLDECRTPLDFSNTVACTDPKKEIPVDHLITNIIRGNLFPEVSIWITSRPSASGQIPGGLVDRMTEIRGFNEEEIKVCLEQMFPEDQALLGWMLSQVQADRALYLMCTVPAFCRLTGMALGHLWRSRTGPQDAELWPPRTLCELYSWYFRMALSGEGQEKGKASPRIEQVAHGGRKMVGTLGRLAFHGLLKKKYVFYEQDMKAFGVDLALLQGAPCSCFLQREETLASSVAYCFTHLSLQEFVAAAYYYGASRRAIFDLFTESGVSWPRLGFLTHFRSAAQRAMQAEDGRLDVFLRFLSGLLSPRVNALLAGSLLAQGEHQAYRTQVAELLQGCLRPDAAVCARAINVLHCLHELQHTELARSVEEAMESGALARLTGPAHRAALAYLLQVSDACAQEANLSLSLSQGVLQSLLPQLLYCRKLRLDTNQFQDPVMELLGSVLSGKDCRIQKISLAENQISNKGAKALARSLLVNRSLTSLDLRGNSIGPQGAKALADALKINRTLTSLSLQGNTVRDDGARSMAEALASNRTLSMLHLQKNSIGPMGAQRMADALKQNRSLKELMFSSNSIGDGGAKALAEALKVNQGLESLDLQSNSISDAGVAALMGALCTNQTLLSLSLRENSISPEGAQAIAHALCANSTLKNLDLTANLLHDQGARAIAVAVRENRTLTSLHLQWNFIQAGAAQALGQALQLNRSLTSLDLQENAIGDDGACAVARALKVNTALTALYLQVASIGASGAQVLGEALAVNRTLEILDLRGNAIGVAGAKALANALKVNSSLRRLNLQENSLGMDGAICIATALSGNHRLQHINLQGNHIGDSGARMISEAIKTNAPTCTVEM
# T2: NLRC3 NBD recombinant (human, UniProt Q7RTR2 139-460)
# T2 sequence: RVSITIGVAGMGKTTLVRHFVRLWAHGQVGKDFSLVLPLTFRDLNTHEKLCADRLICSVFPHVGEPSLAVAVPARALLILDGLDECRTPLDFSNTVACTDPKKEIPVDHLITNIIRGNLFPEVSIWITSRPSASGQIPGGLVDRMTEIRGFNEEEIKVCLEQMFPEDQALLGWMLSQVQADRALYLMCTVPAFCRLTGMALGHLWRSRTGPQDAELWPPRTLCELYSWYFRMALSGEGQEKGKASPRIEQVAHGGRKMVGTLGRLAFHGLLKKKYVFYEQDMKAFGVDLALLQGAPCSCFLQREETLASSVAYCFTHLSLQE
# Assays:
# NLRC3 FL recombinant [1] = target: T1, NLRC3 FL recombinant; assay: pull-down
# NLRX1 FL recombinant [2] = target: T3, NLRX1 FL recombinant (human, UniProt Q86UT6 1-975); assay: pull-down
# NLRC3 FL recombinant [3] = target: T1, NLRC3 FL recombinant; assay: SPR
# STING 155-341 [4] = target: T4, STING 155-341 (human, UniProt Q86WV6 155-341); assay: SPR
# NLRC3 NBD recombinant = target: T2, NLRC3 NBD recombinant; assay: pull-down
# cGAS FL recombinant = cGAS FL recombinant (mouse, UniProt Q8C6L5 1-507); assay: EMSA
# NLRX1 FL recombinant [5] = target: T3, NLRX1 FL recombinant; assay: EMSA
# STING 155-341 [6] = target: T4, STING 155-341; assay: gel filtration
# NLRX1 FL recombinant [7] = target: T3, NLRX1 FL recombinant; assay: SPR
# T3 sequence (Q86UT6 whole entry): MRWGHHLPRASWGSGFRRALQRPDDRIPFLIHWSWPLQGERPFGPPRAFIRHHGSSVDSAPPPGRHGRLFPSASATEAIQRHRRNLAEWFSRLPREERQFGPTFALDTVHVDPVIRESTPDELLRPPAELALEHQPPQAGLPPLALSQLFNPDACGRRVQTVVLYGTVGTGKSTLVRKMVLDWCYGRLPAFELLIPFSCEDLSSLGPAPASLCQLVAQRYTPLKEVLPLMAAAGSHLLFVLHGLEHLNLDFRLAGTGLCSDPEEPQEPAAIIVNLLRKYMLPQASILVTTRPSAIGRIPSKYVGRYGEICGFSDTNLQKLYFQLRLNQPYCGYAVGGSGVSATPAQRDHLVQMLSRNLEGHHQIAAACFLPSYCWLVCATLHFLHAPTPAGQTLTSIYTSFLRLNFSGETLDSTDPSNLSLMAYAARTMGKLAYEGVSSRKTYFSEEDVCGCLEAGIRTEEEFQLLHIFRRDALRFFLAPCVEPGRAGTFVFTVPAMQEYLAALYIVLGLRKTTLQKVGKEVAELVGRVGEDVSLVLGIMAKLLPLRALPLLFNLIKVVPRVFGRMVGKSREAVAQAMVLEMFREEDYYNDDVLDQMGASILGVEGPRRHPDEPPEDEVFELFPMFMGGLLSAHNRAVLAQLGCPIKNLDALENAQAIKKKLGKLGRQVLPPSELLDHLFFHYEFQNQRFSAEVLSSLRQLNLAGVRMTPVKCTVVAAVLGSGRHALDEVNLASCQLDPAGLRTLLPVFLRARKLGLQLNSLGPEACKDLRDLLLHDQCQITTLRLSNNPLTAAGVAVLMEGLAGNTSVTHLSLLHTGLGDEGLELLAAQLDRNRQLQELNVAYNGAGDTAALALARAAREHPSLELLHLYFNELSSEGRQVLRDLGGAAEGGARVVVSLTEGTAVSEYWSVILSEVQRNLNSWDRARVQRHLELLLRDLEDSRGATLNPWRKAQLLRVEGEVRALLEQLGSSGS
# T4 sequence (Q86WV6 155-341): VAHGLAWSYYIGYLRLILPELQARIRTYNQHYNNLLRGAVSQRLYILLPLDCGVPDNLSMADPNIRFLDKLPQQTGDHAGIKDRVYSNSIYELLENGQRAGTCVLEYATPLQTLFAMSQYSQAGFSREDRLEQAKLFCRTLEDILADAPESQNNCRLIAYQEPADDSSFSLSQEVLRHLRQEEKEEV
# Chain of cGAS FL recombinant (Q8C6L5 whole entry): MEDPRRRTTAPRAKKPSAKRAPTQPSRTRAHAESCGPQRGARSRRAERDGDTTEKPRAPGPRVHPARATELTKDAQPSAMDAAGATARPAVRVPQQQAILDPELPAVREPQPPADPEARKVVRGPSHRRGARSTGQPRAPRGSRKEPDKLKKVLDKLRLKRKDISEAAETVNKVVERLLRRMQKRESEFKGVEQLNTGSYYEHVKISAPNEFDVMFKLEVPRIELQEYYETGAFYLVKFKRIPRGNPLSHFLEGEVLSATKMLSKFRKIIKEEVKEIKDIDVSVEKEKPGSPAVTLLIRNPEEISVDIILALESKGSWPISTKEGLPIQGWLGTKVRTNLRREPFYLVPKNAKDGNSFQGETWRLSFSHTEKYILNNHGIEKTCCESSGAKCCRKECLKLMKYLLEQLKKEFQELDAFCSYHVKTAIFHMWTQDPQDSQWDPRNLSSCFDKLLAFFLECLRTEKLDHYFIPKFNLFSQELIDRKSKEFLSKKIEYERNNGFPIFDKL
binder,measurement,setting,value
HSV-15 dsDNA (dsDNA) DNA 1: TAAGACACGATGCGA DNA 2: TCGCATCGTGTCTTA,binding result,NLRC3 FL recombinant [1],binds
same,binding result,NLRX1 FL recombinant [2],no binding
HSV-60 dsDNA (dsDNA) DNA 1: TAAGACACGATGCGATAAAATCTGTTTGTAAAATTTATTAAGGGTACAAATTGCCCTAGC DNA 2: GCTAGGGCAATTTGTACCCTTAATAAATTTTACAAACAGATTTTATCGCATCGTGTCTTA,Kd,NLRC3 FL recombinant [3],3 nM
same,binding result,STING 155-341 [4],no binding
same,binding result,NLRC3 NBD recombinant,no binding
same,binding result,cGAS FL recombinant,binds
same,binding result,NLRX1 FL recombinant [5],no binding
HSV-60 ssDNA (ssDNA) DNA: TAAGACACGATGCGATAAAATCTGTTTGTAAAATTTATTAAGGGTACAAATTGCCCTAGC,binding result,NLRC3 FL recombinant [3],binds
HSV-60 dsDNA unlabelled (dsDNA) DNA 1: TAAGACACGATGCGATAAAATCTGTTTGTAAAATTTATTAAGGGTACAAATTGCCCTAGC DNA 2: GCTAGGGCAATTTGTACCCTTAATAAATTTTACAAACAGATTTTATCGCATCGTGTCTTA,binding result,STING 155-341 [6],no binding
HSV-60 DNA-RNA hybrid (DNA:RNA) DNA: TAAGACACGATGCGATAAAATCTGTTTGTAAAATTTATTAAGGGTACAAATTGCCCTAGC RNA: GCUAGGGCAAUUUGUACCCUUAAUAAAUUUUACAAACAGAUUUUAUCGCAUCGUGUCUUA,binding result,NLRC3 FL recombinant [3],binds
HSV-60 dsRNA (dsRNA) RNA 1: UAAGACACGAUGCGAUAAAAUCUGUUUGUAAAAUUUAUUAAGGGUACAAAUUGCCCUAGC RNA 2: GCUAGGGCAAUUUGUACCCUUAAUAAAUUUUACAAACAGAUUUUAUCGCAUCGUGUCUUA,binding result,NLRX1 FL recombinant [7],binds

# Reference: article PMC6469509
